± gives the standard deviation.
Test: protein stability index of a GFP-peptide fusion (GPS, HEK-293T) (PSI 1-6); higher = more stable
[1] = treatment: DMSO, c terminus: a fixed tail appended
[2] = treatment: MLN4924 1 uM, 8 h, c terminus: a fixed tail appended
[3] = treatment: DMSO, c terminus: native
[4] = treatment: MLN4924 1 uM, 8 h, c terminus: native
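Further: 24-mer peptide tiles fused after GFP, lentivirally expressed, FACS-sorted into six equal bins by GFP/DsRed ratio, decoded by Illumina sequencing, PSI is the read-weighted mean bin number.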

Sequence	protein stability index [1]	protein stability index [2]	protein stability index [3]	protein stability index [4]
VLQERVRIFAHKIYLSTSSSKFYD [RHOBTB2]	2.6 ± 0.54	2.33 ± 0.46	–	–
EAVFLRAVKLYNSGDFRSSTEDME [P3H4]	3.69 ± 0.36	3.73 ± 0.52	–	–
WKDLTLSTRPEEGCSLHEEDTQRH [TCAP]	5.08 ± 0.25	5.13 ± 0.28	–	–
AEKKREAKQRAKEAQERELRKREK [LRRC59]	5.38 ± 0.12	5.33 ± 0.11	–	–
KNWRNFASKWGMSYDELCFLEQRP [EDARADD]	2.06 ± 0.18	2.02 ± 0.23	–	–
AREVKLLLLGAGESGKSTIVKQMK [GNAI1]	2.73 ± 0.25	2.62 ± 0.26	–	–
LPEPSKRGPPHGWPKLCPCLRSGI [MYCL]	2.04 ± 0.64	2.85 ± 0.054	–	–
GLAGLLPASYTAPIMSGQGLAGFF [SLC29A1]	2.06 ± 0.25	2.1 ± 0.086	–	–
TKITSAFKYINTVISCTIFIVGMV [EDNRA]	2.91 ± 1.1	2.48 ± 1	–	–
PSSFDPSMLLQRFSVAPHETQTQR [RNF180]	4.12 ± 0.14	3.95 ± 0.13	–	–
RYVSNWDFFIVGCEVIFCVFIFYY [PKD2L1]	3.07 ± 0.34	2.89 ± 0.32	–	–
HRRIHTGEKPYECQDCGRAFNQNS [ZNF8]	3.75 ± 0.53	4.1 ± 0.27	–	–
SPPDQPAVPHPPPSTPIKLEEGDG [ADD1]	5.56 ± 0.2	5.62 ± 0.18	–	–
LRELGHAEHEITELTATFTKFDRD [PKD2L1]	4.48 ± 0.28	4.59 ± 0.25	–	–
AFADIIHSLKESGQLWLDAYLHQ [FADS1]	–	–	2.7 ± 0.78	2.49 ± 0.58
DFWLMVWEQKVLVIVMTTRFEEGG [PTPN9]	2.69 ± 0.77	2.58 ± 0.07	–	–
ANSDRASIGRRRTELRRSGSSRSP [PLEKHN1]	4.79 ± 0.3	5.2 ± 0.21	–	–
KLILGMPTYGRSFTLASSSDTRVG [CHIT1]	2.42 ± 0.36	2.46 ± 0.22	–	–
KDKLGVWVYKNKLIFFGGYGYLPE [KLHDC2]	2.25 ± 0.59	3.11 ± 1.6	–	–
HTDMTNKQNKTPLDKSTTGVSEIL [FEM1B]	4.85 ± 0.49	5.05 ± 0.25	–	–
AGDVIFLLSRINKDWLEGTVRGAT [NCF4]	3.21 ± 0.31	3.2 ± 0.4	–	–
GEQEFEALMRMLDNLGYRTGYPYR [ADD1]	2.15 ± 0.3	2.26 ± 0.49	–	–
EEFISNTLFKKIQALQKEKETLAV [CCDC6]	3.27 ± 0.33	3.39 ± 0.33	–	–

Sequence	protein stability index [1]	protein stability index [2]	protein stability index [3]	protein stability index [4]
MMGLAQIYKKYALQSAAGKDAAKQ [PDS5B]	2.8 ± 0.27	3.23 ± 0.1	–	–
GKGSGGNAGSYIPSYTSWYPSAHQ [DLX1]	2.56 ± 0.43	2.69 ± 0.48	–	–
GMPSSLAHRIAAQTLLGTAKMLLH [PYCR3]	2.4 ± 1.2	2.29 ± 0.3	–	–
WCLVQICEKYLPGYYSEKLEAIQL [TBC1D10A]	2.74 ± 0.48	3.57 ± 0.41	–	–
AKNLQEAEEWYKSKYADLSDAANR [PRPH]	4.43 ± 0.18	4.48 ± 0.22	–	–
HPFYHCLVAEVPKEHWTPEGHSIV [SAT1]	2.76 ± 0.33	2.54 ± 0.25	–	–
MDLSERQEVSSVRSLSSTGSLPSH [DLC1]	4.61 ± 0.25	4.47 ± 0.29	–	–
YYVLEPRVVDGTPCSPDSSSVCVQ [ADAMTS4]	3.33 ± 0.35	3.21 ± 0.28	–	–
AGRNVLRWDLSPEQIKTRTEELIV [NLN]	2.52 ± 0.34	3.23 ± 0.47	–	–
SMSTRRLGVAVAVLGGFLYAVGGS [KLHL20]	2.29 ± 0.42	2.67 ± 1.2	–	–
MREMFFEDHIDDAKYCGHLYGLGS [CNOT7]	2.68 ± 0.093	2.44 ± 0.28	–	–
VVIDKHPVRFFVHKRPHVDFFLEV [CTDNEP1]	2.22 ± 1.1	3.06 ± 0.87	–	–
LAGAALEPAGGGRSREARSRLLLL [SMAD6]	3.38 ± 0.27	3.65 ± 0.31	–	–
APNAWQVIKGVLFRIFIIWAISSW [CLPTM1]	2.94 ± 0.19	2.89 ± 0.53	–	–
PAADPPRYTFAPSVSLNKTARPFG [PDLIM7]	3.54 ± 0.27	3.64 ± 0.35	–	–
FSHDLTLERKCEKRSVYIDARDEE [ZC3H15]	4.47 ± 0.24	4.64 ± 0.34	–	–
RPRYKADVPDLQSVCSCTCYRSQD [KCNK9]	3.34 ± 0.41	3.67 ± 0.23	–	–
EKFVFFIGSKNGGKTTIILRCLDR [DYNC2LI1]	3.27 ± 0.27	2.53 ± 0.22	–	–
TLDKCGICQGDGSSCTHVTGNYRK [ADAMTSL2]	4.91 ± 0.35	4.97 ± 0.33	–	–
SFSTGAGGWSNHHFCVILLGFLP [BET1L]	–	–	2.99 ± 0.39	2.99 ± 0.53
HVAGEQMLEDGPHNANRGQRLLAF [CCDC70]	4.07 ± 0.25	4.04 ± 0.24	–	–
KLEWAIDEDELRKSLSELVDDKFG [PSD2]	4.19 ± 0.086	4.09 ± 0.26	–	–
NDFWRIEVVNRKFGNRIKVLRSRI [POMT2]	2.19 ± 0.6	2.17 ± 0.48	–	–

Sequence	protein stability index [1]	protein stability index [2]	protein stability index [3]	protein stability index [4]
TRGIAKIISAHIHPVCSLCWSRDG [RBBP5]	2.45 ± 0.44	2.04 ± 0.19	–	–
YNALKLFMEMNQKLFDDCTQQFKA [PPP2R5C]	2.46 ± 0.22	2.2 ± 0.24	–	–
EQERRLSEARLSQRDLSPTAEDAE [FCHSD1]	5.41 ± 0.23	5.6 ± 0.26	–	–
EKAHECTDCGKAFLKKSQLTEHKR [ZNF649]	3.54 ± 0.29	3.81 ± 0.38	–	–
VGVRMRDVKCYQGTDIVRGCDPLV [ADAMTSL2]	3.01 ± 0.29	3.09 ± 0.45	–	–
DPKITCKQECLITTFQDVYFVSES [TPH1]	2.5 ± 0.36	2.14 ± 0.49	–	–
RALRKMVSNMSGPSGEEEAKVGPG [CBY2]	4.82 ± 0.23	4.87 ± 0.25	–	–
AGGSARRPDTGDDAAGHGFCYCAG [GMCL1]	4.11 ± 0.46	4.13 ± 0.19	–	–
LQLNARSFMMGQGGEAAHHTRSPY [NEUROD6]	2.99 ± 0.22	3.37 ± 0.32	–	–
EGRLERRECGLAAPRFSFNDPSGS [IRX6]	3.79 ± 0.27	3.98 ± 0.2	–	–
LSSEMNTSTVNSAREELMESRMRI [LMNB1]	4.48 ± 0.29	4.27 ± 0.17	–	–
HKARTRPKARKQGVSPADMYRWKL [ADAMTSL2]	3.32 ± 0.25	3.31 ± 0.42	–	–
FQESASTPETRAKFTQDNLCRAQR [TEKT4]	4.48 ± 0.18	4.4 ± 0.25	–	–
AMFRLEHGEADRSTLKKALPTLSH [YJU2B]	3.33 ± 0.16	3.38 ± 0.17	–	–
PPLSGALASITETIQVHRRYWRSL [HDAC6]	2.99 ± 0.33	3.15 ± 0.4	–	–
FLCVLMSDWFNFHGHMCIAFELLG [CLK3]	3.2 ± 0.3	3.11 ± 0.42	–	–
GDWARLLEQMGALAVRGSRREREL [ZBED3]	3.13 ± 0.51	2.89 ± 0.3	–	–
WLNKEKGIFKIEDSAQVARLWGIR [SPDEF]	2.63 ± 0.32	2.35 ± 0.17	–	–
YGHPAGIDYKTTTILLDGRRVKLQ [RAB40B]	2.87 ± 0.28	3.14 ± 0.11	–	–
EELNKEVASNSELVQSSRSEVTEL [KRT16]	5.51 ± 0.16	5.55 ± 0.24	–	–
MQVLGPEDLQSIIYKLEEHEEFFP [CEP70]	2.99 ± 0.53	3.41 ± 0.39	–	–
LEQTAREILTLLQGVHQGAGFQDI [TSN]	3.07 ± 0.32	2.81 ± 0.38	–	–
VVNKYQINGLQAWLLTHLLWFANA [DHCR7]	2.9 ± 0.28	2.75 ± 0.34	–	–

Sequence	protein stability index [1]	protein stability index [2]	protein stability index [3]	protein stability index [4]
GGMLNFMMHDQRTGPAWNVLMWTM [SOAT2]	2.49 ± 1.2	2.07 ± 0.73	–	–
TLAGLRSRRLKQPKAFCLRDVAP [MIR22HG]	–	–	3.11 ± 0.44	2.99 ± 0.21
EECAKWLLLNNANPNLSNRRGSTP [RIPK4]	3.56 ± 0.17	3.71 ± 0.067	–	–
DTMQNIESTIVELGSIFQQLAHMV [STX5]	2.47 ± 0.13	2.52 ± 0.38	–	–
ESACSSDSLDEARSSGSEGTPADT [PWWP2B]	5.7 ± 0.11	5.5 ± 0.21	–	–
SLIFSLKNEVGGLIKALKIFQEKH [TPH1]	2.07 ± 0.23	2.75 ± 0.82	–	–
AANVVSAKRNRLAPAHVDEQVFLY [ZBED1]	2.55 ± 0.12	2.47 ± 0.27	–	–
VYLANQAKNQSDEAKEAKGSGYEK [RTP4]	4.96 ± 0.52	5.08 ± 0.21	–	–
QGEAFQRALESELQQLRARLQGLE [PBXIP1]	3.1 ± 0.17	3.23 ± 0.28	–	–
TPEEVIWEALNMMGLYDGMEHLIY [MAGEA10]	2.49 ± 0.37	2.03 ± 0.055	–	–
CEGKPYNQKSDIWALGCVLYELAS [NEK8]	3.08 ± 0.74	2.88 ± 0.72	–	–
PLSSQPQAIVTEDKTDISSGRARQ [MLH1]	4.99 ± 0.14	5.15 ± 0.23	–	–
CPEGLEELLSAPPPDLGAQRRHGW [SPSB2]	3.8 ± 0.34	3.83 ± 0.25	–	–
ARNNNDPGRLTEALCLEVRPTYFE [RNF180]	4.97 ± 0.23	4.96 ± 0.18	–	–
MENIGAIQVLPKLSSSIIHEIDSI [KCNAB2]	3.53 ± 0.34	3.51 ± 0.29	–	–
YSECIVTVGGEERVSRKPTAAMRC [GAN]	3.56 ± 0.32	3.85 ± 0.66	–	–
RPSSILPPRRGVSGDRDENSFSLN [MAP2]	4.67 ± 0.09	4.63 ± 0.12	–	–
RSWAMLFASGGFQVKLYDIEQQQI [CRYL1]	2.16 ± 0.34	2.28 ± 0.67	–	–
EPFPSSDDSPRSALAAATAAAAAA [SPAG8]	5.2 ± 0.16	5.05 ± 0.18	–	–
YKYCDHENAAFKDVALVLTVLLEE [TOR1AIP2]	2.5 ± 0.43	2.8 ± 0.52	–	–

Reference: the supplement of paper PMC10567573
